The target of assay [1] is T1, human IL6 receptor (Homo sapiens, UniProt P08887).
T1 sequence (P08887 20-357 limits assumed): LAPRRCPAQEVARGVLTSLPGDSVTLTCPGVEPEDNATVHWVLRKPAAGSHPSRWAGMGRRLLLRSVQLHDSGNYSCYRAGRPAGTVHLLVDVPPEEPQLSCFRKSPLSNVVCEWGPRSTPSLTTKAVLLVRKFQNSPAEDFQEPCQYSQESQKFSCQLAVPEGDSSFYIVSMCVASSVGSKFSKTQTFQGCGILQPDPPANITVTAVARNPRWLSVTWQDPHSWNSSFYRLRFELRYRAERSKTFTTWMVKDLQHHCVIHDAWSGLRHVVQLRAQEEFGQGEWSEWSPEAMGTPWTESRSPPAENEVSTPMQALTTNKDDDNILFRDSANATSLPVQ
Kind of assay: Phage ELISA, binding to human IL6 receptor in the presence or absence of adenosine and/or ATP. The conditions noted are these: with or without 10 mM adenosine and ATP. Here is the method:
Phage-containing culture supernatants were collected according to a conventional method (Methods Mol. Biol. (2002) 178, 133-145) from single colonies of E. coli obtained by the method described above. The collected culture supernatants were treated by ultrafiltration using NucleoFast 96 (MACHERY-NAGEL). 100 μl of the culture supernatants were added to each well of NucleoFast 96, and it was centrifuged (4500 g for 45 minutes) to remove flow through. After addition of 100 μl of H2O, the NucleoFast 96 was washed by centrifugation (4500 g for 30 minutes). Finally, 100 μl of TBS was added, and the NucleoFast 96 was allowed to stand for five minutes at room temperature. A phage suspension was collected from the supernatant in each well of the NucleoFast 96.
The purified phages, to which TBS or (adenosine+ATP)/TBS was added, were subjected to ELISA by the following procedure. A StreptaWell 96 microtiter plate (Roche) was coated overnight with 100 μl of TBS containing biotin-labeled antigen. […] Then, the developed color was assessed by measuring absorbance at 450 nm. […]
First, a StreptaWell 96 microtiter plate (Roche) was coated at room temperature for one hour or more with 100 μl of TBS containing a biotin-labeled antigen. […] Then, the developed color was assessed by measuring absorbance at 450 nm (FIGS. 25, 26, and 27). […]

Assay [2] can be described thus: Competitive phage ELISA, inhibition of binding to biotin-labeled antigens by ATP. The conditions noted are these: ATP from an equal amount up to 10000 times that of the antigen. As for the experimental part:
ATNLSA1-4_D12 and PF1 were each diluted with TBS and subjected to ELISA by the following procedure.
A StreptaWell 96 microtiter plate (Roche) was coated at room temperature for one hour with 100 μl of TBS containing biotin-labeled antigens (a mixture of 5′-adenosine-PEG-biotin and ATP-PEG-biotin). After the antigens were removed by washing each well of the plate with TBST, the wells were blocked with 250 μl of 2% skim milk/TBS for one hour or more. 2% skim milk/TBS was removed, and then the prepared, purified phages were added to each well. The plate was allowed to stand at room temperature for one hour to allow binding of the antibody-displaying phages to the antigens in each well. […] For the competition of the immobilized antigen with ATP, the plate was allowed to stand at room temperature for one hour. Then, after TBST wash, an HRP-conjugated anti-M13 antibody (Amersham Pharmacia Biotech) diluted with TBS was added to each well. The plate was incubated for one hour. Following TBST wash, the TMB single solution (ZYMED) was added to each well. The chromogenic reaction in the solution of each well was terminated by adding sulfuric acid. Then, the developed color was assessed by measuring absorbance at 450 nm.
(In general: ELISA stands for enzyme-linked immunosorbent assay.)

For assay [3], the target named is T2, hIL-6R (Homo sapiens, UniProt P08887).
T2 sequence (P08887 20-355 limits assumed): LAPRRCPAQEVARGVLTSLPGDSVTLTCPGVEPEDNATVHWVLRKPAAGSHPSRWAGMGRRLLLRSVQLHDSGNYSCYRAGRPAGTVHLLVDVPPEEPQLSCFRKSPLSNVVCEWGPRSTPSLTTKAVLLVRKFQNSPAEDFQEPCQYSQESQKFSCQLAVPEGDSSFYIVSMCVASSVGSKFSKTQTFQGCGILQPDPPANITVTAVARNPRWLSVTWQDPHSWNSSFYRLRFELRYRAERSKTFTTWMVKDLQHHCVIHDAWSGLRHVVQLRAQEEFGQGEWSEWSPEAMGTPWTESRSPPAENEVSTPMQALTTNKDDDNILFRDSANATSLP
Kind of assay: IgG ELISA, binding to hIL-6R in the presence or absence of each small molecule, amino acid or amino acid metabolite. Here is the method: Three types of antibodies obtained: 6RNMSC1-2_F02 and 6RNMSC1-3_G02, and GC413 were subjected to ELISA under the nine conditions described in Table 3. Meanwhile, each small molecule was appropriately prepared at the concentrations shown in Table 3 using the buffers indicated in Table 19. The antigen used was biotin-labeled hIL-6R.
First, a StreptaWell 96 microtiter plate (Roche) was coated at room temperature for one hour or more with 100 μl of PBS containing biotin-labeled hIL-6R. After washing with Wash buffer to remove unbound biotin-labeled hIL-6R from the plate, each well was blocked for one hour or more with 250 μl of Blocking Buffer. After Blocking Buffer was removed from each well, the purified IgGs were prepared to 2.5 μg/ml in Sample Buffer containing small molecules at the final concentrations shown in Table 3, and each was aliquoted at 100 μl into the plate. The plate was allowed to stand at room temperature for one hour to allow binding of each IgG to biotin-labeled hIL-6R in each well. After washing with Wash Buffer containing small molecules at the final concentrations shown in Table 3, an HRP-conjugated anti-human IgG antibody (BIOSOURCE) diluted with Sample Buffer containing the same small molecules was added to each well. The plate was incubated for one hour. Following wash with Wash Buffer containing each small molecule, the TMB single solution (ZYMED) was added to each well. The chromogenic reaction in the solution of each well was terminated by adding sulfuric acid. Then, the developed color was assessed by measuring absorbance at 450 nm.
6RNMSC1-2_F02 described in Example 14, which has antigen-binding activity in the presence of kynurenine, and negative control GC413 were subjected to ELISA under the seven conditions described in Table 18. Meanwhile, each small molecule was appropriately prepared at the concentrations shown in Table 18 using the buffers indicated in Table 4. The antigen used was biotin-labeled hIL-6R. ELISA was carried out using the method described in Example 11.

Assay [4] addresses T2, hIL-6R. Briefly: Phage ELISA, binding to hIL-6R in the presence or absence of SC. The conditions noted are these: in the presence of SC. As for the experimental part:
Culture supernatants containing phages were collected according to a conventional method (Methods Mol. Biol. (2002) 178, 133-145) from single colonies of E. coli obtained as described in (14-2). Phages purified by the method described in (2-4) were subjected to ELISA by the following procedure. A StreptaWell 96 microtiter plate (Roche) was coated overnight with 100 μl of TBS containing biotin-labeled hIL-6R. After biotin-labeled hIL-6R was removed by washing each well of the plate with TBST, the wells were blocked with 250 μl of 2% skim milk/TBS for one hour or more. 2% skim milk/TBS was removed, and then the prepared, purified phages were added to each well. The plate was allowed to stand at room temperature for one hour to allow binding of antibody-displaying phages to biotin-labeled hIL-6R in each well in the presence or absence of SC. After washing with TBST or SC/TBST, an HRP-conjugated anti-M13 antibody (Amersham Pharmacia Biotech) diluted with TBS or SC/TBS was added to each well. The plate was incubated for one hour. Following wash with TBST or SC/TBST, the TMB single solution (ZYMED) was added to each well. The chromogenic reaction in the solution of each well was terminated by adding sulfuric acid. Then, the developed color was assessed by measuring absorbance at 450 nm.

This note sets out measurements from US11673947B2, “Target tissue-specific antigen-binding molecule” (Chugai Seiyaku Kabushiki Kaisha, priority 2012, dated 2023).

B1: 6RRLSA1-6_037: clone with antigen-binding activity to human IL-6 receptor in the absence of ATP and adenosine (antibody, V domains shown)
VH: EVQLVESGGDLVKPGGGLRLSCAASGFTFSTYTMHWVRQAPGKGLEWVSSISSRSGHRHYADSVKGRFTISRDNAKNSLYLQMNSLRAEDTAVYYCARYGKKGNRNWVFDYWGQGTLVTVSS
VL: QSALTQPPSASGSPGQTVTISCTGTSTDVGGYNYVSWYQQHPGKAPKLMIYSTSKRPSGVPDRFSGSKSGNTASLTVSGLQAEDEADYFCSTTTYAKNPVFGGGTKLTVL
For B1, the “antigen-binding activity to human IL-6 receptor in the absence of ATP and adenosine” value in assay [1] is on record as “had an antigen-binding activity”.

B2: 6RRLSA1-6_045: clone with antigen-binding activity to human IL-6 receptor in the absence of ATP and adenosine (antibody, V domains shown)
VH: EVQLVESGGDLVKPGGGLRLSCAASGFTFSGYTMHWVRQAPGKGLEWVSSISSRSNHRSYADSVKGRFTISRDNAKNSLYLQMNSLRAEDTAVYYCARFGKRFDRNWVFDYWGQGTLVTVSS
VL: QSALTQPPSASGSPGQTVTISCTGTSTDVGTYNYVSWYQQHPGKAPKLMIYKTSKRPSGVPDRFSGSKSGNTASLTVSGLQAEDEADYFCSSRRYRRSLSFGGGTKLTVL
For the molecule B2, the “antigen-binding activity to human IL-6 receptor in the absence of ATP and adenosine” value in assay [1] was “had an antigen-binding activity”.

B3: PF1: IL-6R-binding clone prepared as a negative control; SEQ ID NOs: 48 and 49 (antibody, V domains shown)
VH: QVQLQESGPGLVKPSETLSLTCAVSGYSISDDHAWSWVRQPPGEGLEWIGYISYSGITNYNPSLKGRVTISRDTSKNQFSLKLSSVTAADTAAYYCARVLARITAMDYWGEGTLVTVSS
VL: DIQMTQSPSSLSASVGDSVTITCQASQDISSYLNWYQQKPGKAPELLIYYGSELHSGVPSRFSGSGSGTDFTFTISSLEAEDAATYYCGQGNRLPYTFGQGTKVEIE
For the molecule B3, the “antigen binding (negative control)” value in assay [2] is on record as “not detected regardless of the ATP concentration”.

B4: 6RNMSC1-3_G02: antibody that binds to hIL-6R in the presence of ATP; SEQ ID NOs: 88 and 89 (antibody, listed as Homo sapiens, V domains shown)
VH: EVQLVQSGGDLVKPGGSLRLSCAASGFTFSNYAMHWVRQAPGKGLEWVAVVSYDGSNKYYADSVKGRFTISRDNSKNTLYLQMNSLRAEDTAVYYCARLVPSSGYPGRFDPWGQGTLVTVSS
VL: NIQMTQSPSSLSASVGDRVTITCRASQSISSSLNWYQQIPGKAPKLLIYAASSLQSGVPSRFSGSGSGTDFTLTISSLQPEDFASYYCQQSYSAWTFGQGTKVEIK
For B4, the “absorbance under condition 1 compared to condition 8” value in assay [3] (condition 1 (1 mM ATP-Na)) is recorded as “the same”. In addition, the “absorbance under condition 9 as compared to condition 8” value in assay [3] (condition 9 (in the absence of small molecules) vs condition 8 (complete small molecule cocktail solution)) is recorded as “markedly lower”. Further, the “absorbance under other conditions” value in assay [3] (remaining conditions of Table 3) is listed as “markedly lower”. For the same molecule, the “binding activity to hIL-6R in the presence of a small molecule cocktail (phage ELISA)” value in assay [4] is “have binding activity”.
